The target in assay [1] is T1, human CD71 extracellular domain (human, UniProt P02786 89-760).
T1 construct: also called hCD71; CD71-ECD
Nature of the assay: primary ELISA. (In an ELISA, binding on a coated surface is turned into a signal by an enzyme label.)

Assay [2] has as its target T2, human apical domain of CD71 (human, UniProt P02786 189-383, limits assumed).
T2 construct: domain: apical domain
The experiment in a line: primary ELISA. Further: test concentration or dose not given here.

Assay [3] concerns the target T1, human CD71 extracellular domain. Nature of the assay: primary ELISA; signal over HSA control. Further: test concentration or dose not given here.
The target of assay [4] is T2, human apical domain of CD71. The experiment in a line: primary ELISA; signal over HSA control. Further: test concentration or dose not given here.

T2 sequence (P02786 189-383 limits assumed): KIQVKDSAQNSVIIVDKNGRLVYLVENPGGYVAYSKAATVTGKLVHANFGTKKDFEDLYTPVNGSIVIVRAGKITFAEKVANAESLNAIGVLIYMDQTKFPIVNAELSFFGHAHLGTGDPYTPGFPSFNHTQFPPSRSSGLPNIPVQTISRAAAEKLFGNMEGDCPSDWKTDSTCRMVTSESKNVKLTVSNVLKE
T1 sequence (P02786 89-760): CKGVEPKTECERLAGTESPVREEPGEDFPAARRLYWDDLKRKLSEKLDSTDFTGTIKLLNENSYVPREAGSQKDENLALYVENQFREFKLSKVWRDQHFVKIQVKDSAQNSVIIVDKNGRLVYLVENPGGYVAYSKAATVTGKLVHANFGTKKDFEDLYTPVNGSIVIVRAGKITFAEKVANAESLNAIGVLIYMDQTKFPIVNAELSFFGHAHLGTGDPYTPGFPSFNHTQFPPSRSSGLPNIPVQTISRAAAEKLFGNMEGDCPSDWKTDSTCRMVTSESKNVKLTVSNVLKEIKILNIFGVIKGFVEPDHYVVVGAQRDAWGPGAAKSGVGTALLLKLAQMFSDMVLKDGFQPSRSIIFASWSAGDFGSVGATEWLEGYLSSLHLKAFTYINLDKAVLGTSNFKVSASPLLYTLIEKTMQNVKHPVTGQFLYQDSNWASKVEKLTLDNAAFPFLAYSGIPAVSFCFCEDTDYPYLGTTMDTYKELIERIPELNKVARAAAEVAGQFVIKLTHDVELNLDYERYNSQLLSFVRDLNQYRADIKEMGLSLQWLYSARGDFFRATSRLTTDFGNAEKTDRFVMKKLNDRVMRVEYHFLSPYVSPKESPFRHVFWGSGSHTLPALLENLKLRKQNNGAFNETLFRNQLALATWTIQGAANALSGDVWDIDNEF

B1: CD71-binding FN3 domain SEQ ID NO 382 (designed binder)
chain: MLPAPKNLVVSRVTEDSARLSWTAPDAAFDSFFIGYLEPQPPGEAIELYVPGSERSYDLTGLKPGTEYNVTIQGVKGGFPSDPLEADFTT
As for B1, the RLU in assay [1] came to 2.01e+06 RLU; in assay [2], 2.55e+06 RLU. Further, the “hCD71:HSA” value in assay [3] was determined as 160 ratio. The “Apical domain:HSA” value in assay [4] was 203 ratio.

B2: CD71-binding FN3 domain SEQ ID NO 398 (designed binder)
chain: MLPAPKNLVVSRVTEDSARLSWTAPDAAFDSFFIGYLEPQPPGEAIYLTVPGSERSYDLTGLKPGTEYNVTIQGVKGGFPSKPLTANFTT
Turning to B2, the values for the RLU in assay [1] and in assay [2] were 2.12e+06 RLU and 2.07e+06 RLU, respectively. Besides, the “hCD71:HSA” value in assay [3] amounted to 132 ratio. In addition, the “Apical domain:HSA” value in assay [4] is 129 ratio.

B3: CD71-binding FN3 domain SEQ ID NO 401 (designed binder)
chain: MLPAPKNLVVSRVTEDSARLSWTAPDAAFDSFFIGYLEPQPPGEAIALWVPGSERSYDLTGLKPGTEYNITIQGVKGGFPSMPLVANFTT
Turning to B3, the RLU amounted to 5.64e+06 RLU in assay [1] and 5.82e+06 RLU in assay [2]. For the same molecule, the “hCD71:HSA” value in assay [3] came to 41 ratio. In addition, the “Apical domain:HSA” value in assay [4] stood at 42 ratio.

B4: CD71-binding FN3 domain SEQ ID NO 395 (designed binder)
chain: MLPAPKNLVVSRVTEDSARLSWTAPDTAFDSFFIGYLEPQPPGEAIGLFVPGSERSYDLTGLKPGTEYNVTIQGVKGGFPSDPLSAFFTT
Consider B4, for which the RLU in assay [1] is 5.11e+06 RLU; in assay [2], 6.59e+06 RLU. Besides, the “hCD71:HSA” value in assay [3] turned out to be 72 ratio. The “Apical domain:HSA” value in assay [4] came to 92 ratio.

B5: CD71-binding FN3 domain SEQ ID NO 405 (designed binder)
chain: MLPAPKNLVVSRVTEDSARLSWTAPDAAFDSFFIGYLEPQPPGEAIHLWVPGSERSYDLTGLKPGTEYNVTIQGVKGGFPSLPLSAFFTT
In the case of B5, the RLU in assay [1] was 1.95e+06 RLU; in assay [2], 3.47e+06 RLU. Further, the “hCD71:HSA” value in assay [3] was 108 ratio. The “Apical domain:HSA” value in assay [4] came out at 193 ratio.

B6: CD71-binding FN3 domain SEQ ID NO 391 (designed binder)
chain: MLPAPKNLIVSRVTEDSARLSWTAPDAAFDSFFIGYLEPQPPGEAISLYVPGSERSYDLTGLKPGTEYNVTIQGVKGGFPSDPLQAIFTT
Regarding B6, the RLU in assay [1] was determined as 2.78e+06 RLU; in assay [2], 4.19e+06 RLU. In assay [3], the “hCD71:HSA” value was found to be 108 ratio. Besides, the “Apical domain:HSA” value in assay [4] is 163 ratio.

B7: CD71-binding FN3 domain SEQ ID NO 404 (designed binder)
chain: MLPAPKNLVVSRVTEDSARLSWTAPDAAFDSFFIGYLEPQPPGEAIHLLVPGSERSYDLTGLKPGTEYNVTIQGVKGGFPSEPLLAIVTT
Regarding B7, the figures for the RLU in assay [1] and in assay [2] were 4.72e+06 RLU and 5.66e+06 RLU, respectively. Further, the “hCD71:HSA” value in assay [3] is 122 ratio. Moreover, the “Apical domain:HSA” value in assay [4] was determined as 146 ratio.

B8: CD71-binding FN3 domain SEQ ID NO 400 (designed binder)
chain: MLPAPKNLVVSRVTEDSARLSWTAPDAAFDSFFIGYLEPQPPGEAIHLFVPGSERSYDLTGLKPGTEYNVTIQGVKGGFPSGPLHATFTT
B8: the RLU in assay [1] stood at 5.67e+06 RLU; in assay [2] it was 6.54e+06 RLU. Also, the “hCD71:HSA” value in assay [3] is 141 ratio. Moreover, in assay [4], the “Apical domain:HSA” value came to 163 ratio.

B9: CD71-binding FN3 domain SEQ ID NO 387 (designed binder)
chain: MLPAPKNLVVSRVTEDSARLSWTAPDAAFDSFFIGYLEPQPPGEAIHLVVPGSERSYDLTGLKPGTEYNVTIQGVKGGFPSDPLYAWFTT
Consider B9, for which the RLU is 1.79e+06 RLU in assay [1] and 3.88e+06 RLU in assay [2]. Also, the “hCD71:HSA” value in assay [3] turned out to be 203 ratio. Also, the “Apical domain:HSA” value in assay [4] was determined as 441 ratio.

B10: CD71-binding FN3 domain SEQ ID NO 389 (designed binder)
chain: MLPAPKNLVVSRVTEDSARLSWTAPDAAFDSFFIGYLEPQPPGEAIHLLVPGSERSYDLTGLKPGTEYNVTIQGVKGGFPSMPLSAIVTT
Regarding B10, the values for the RLU in assay [1] and in assay [2] were 5.82e+06 RLU and 6.19e+06 RLU, respectively. Also, the “hCD71:HSA” value in assay [3] was found to be 121 ratio. Besides, the “Apical domain:HSA” value in assay [4] was 129 ratio.

B11: CD71-binding FN3 domain SEQ ID NO 393 (designed binder)
chain: MLPAPKNLVVSRVTEDSARLSWTAPDAAFDSFFIGYLEPQPPGEAIGLFVPGSERSYDLTGLKPGTEYNVTIQGVKGGFPSLPLQAHFTT
On to B11, for which the RLU in assay [1] came to 4.39e+06 RLU; in assay [2] it was 6.09e+06 RLU. Moreover, the “hCD71:HSA” value in assay [3] was 42 ratio. Also, the “Apical domain:HSA” value in assay [4] is 58 ratio.

B12: CD71-binding FN3 domain SEQ ID NO 383 (designed binder)
chain: MLPAPKNLVVSRVTEDSARLSWTAPDAAFDSFFIGYLEPQPPGEAIDLWVPGSERSYDLTGLKPGTEYNVTIQGVKGGFPSLPLDAVFTT
As for B12, the figures for the RLU in assay [1] and in assay [2] were 1.85e+06 RLU and 4.33e+06 RLU, respectively. In addition, the “hCD71:HSA” value in assay [3] was 94 ratio. Besides, in assay [4], the “Apical domain:HSA” value was 220 ratio.

B13: CD71-binding FN3 domain SEQ ID NO 409 (designed binder)
chain: MLPAPKNLVVSRVTEDSARLSWTAPDAAFDSFFIGYLEPQPPGEAIHLFVPGSERSYDLTGLKPGTEYNVTIQGVKGGFPSNPLSAQFTT
Take B13: the RLU is 4.91e+06 RLU in assay [1] and 6.2e+06 RLU in assay [2]. Besides, the “hCD71:HSA” value in assay [3] was 225 ratio. The “Apical domain:HSA” value in assay [4] turned out to be 284 ratio.

B14: CD71-binding FN3 domain SEQ ID NO 385 (designed binder)
chain: MLPAPKNLVVSRVTEDSARLSWTAPDAAFDSFFIGYLEPQPPGEAIDLYVPGSERSYDLTGLKPGTEYNVTIQGVKGGFPSHPLQAHFTT
Consider B14, for which the RLU in assay [1] was 5.74e+06 RLU; in assay [2], 5.91e+06 RLU. The “hCD71:HSA” value in assay [3] turned out to be 142 ratio. For the same molecule, in assay [4], the “Apical domain:HSA” value was 146 ratio.

B15: CD71-binding FN3 domain SEQ ID NO 408 (designed binder)
chain: MLPAPKNLVVSRVTEDSARLSWTAPDAAFDSFFIGYLEPQPPGEAIGLWVPGSERSYDLTGLKPGTEYNVTIQGVKGGFPSMPLSAIFTT
On to B15, for which the figures for the RLU in assay [1] and in assay [2] were 2.26e+06 RLU and 3.23e+06 RLU, respectively. For the same molecule, the “hCD71:HSA” value in assay [3] came out at 116 ratio. In addition, in assay [4], the “Apical domain:HSA” value worked out at 165 ratio.

B16: CD71-binding FN3 domain SEQ ID NO 396 (designed binder)
chain: MLPAPKNLVVSRVTEDSARLSWTAPDAAFDSFFIGYLEPQPPGEAIYLTVPGSERSYDLTGLKPGTEYNVTIQGVKGGFPSMPLSAIFTT
B16: the RLU in assay [1] came to 2.23e+06 RLU; in assay [2], 2.47e+06 RLU. Also, in assay [3], the “hCD71:HSA” value worked out at 165 ratio. Besides, the “Apical domain:HSA” value in assay [4] was 183 ratio.

B17: CD71-binding FN3 domain SEQ ID NO 399 (designed binder)
chain: MLPAPKNLVVSRVTEDSARLSWTAPDAAFDSFFIGYLEPQPPGEAITLYVPGSERSYDLTGLKPGTEYNVTIQGVKGGFPSTPLTATFTT
Consider B17, for which the RLU in assay [1] was 5.88e+06 RLU; in assay [2], 5.04e+06 RLU. For the same molecule, the “hCD71:HSA” value in assay [3] came out at 297 ratio. The “Apical domain:HSA” value in assay [4] came to 255 ratio.

B18: CD71-binding FN3 domain SEQ ID NO 394 (designed binder)
chain: MLPAPKNLVVSRVTEDSARLSWTAPDAAFDSFFIGYLEPQPPGEAIYLLVPGSERSYDLTGLKPGTEYNVTIQGVKGGFPSTPLEASFTT
B18: the RLU was determined as 2.86e+06 RLU in assay [1] and 5.66e+06 RLU in assay [2]. Besides, the “hCD71:HSA” value in assay [3] stood at 218 ratio. For the same molecule, in assay [4], the “Apical domain:HSA” value was found to be 430 ratio.

B19: CD71-binding FN3 domain SEQ ID NO 392 (designed binder)
chain: MLPAPKNLVVSRVTEDSARLSWTAPDAAFDSFFIGYLEPQPPGEAIHLGVPGSERSYDLTGLKPGTEYNVTIQGVKGGFPSLPLVATFTT
In the case of B19, the RLU worked out at 4.77e+06 RLU in assay [1] and 3.9e+06 RLU in assay [2]. Besides, the “hCD71:HSA” value in assay [3] amounted to 237 ratio. Moreover, in assay [4], the “Apical domain:HSA” value came to 194 ratio.

These data come from patent US20260151494A1 (ARO BIOTHERAPEUTICS, published 2026).
